We go through two molecules from paper PMC8092709 (Journal of Virology, 2021).

This test deals with human aminopeptidase N (hAPN), residues 66 to 967 (human, UniProt P15144 66-967). The test is described as follows: SPR. In general terms: Surface plasmon resonance follows binding to a sensor surface in real time, without labels.

The Kd is the constant that tells how readily two partners part at equilibrium. Lower therefore signals tighter binding. For orientation: koff means a measure of how fast the partners let go of each other. Low values mean slow dissociation, high ones fast dissociation. For orientation: kon means the second-order rate constant of association. Low readings indicate slower complex formation, high ones faster complex formation.

Sequence of human aminopeptidase N (hAPN), residues 66 to 967 (P15144 66-967): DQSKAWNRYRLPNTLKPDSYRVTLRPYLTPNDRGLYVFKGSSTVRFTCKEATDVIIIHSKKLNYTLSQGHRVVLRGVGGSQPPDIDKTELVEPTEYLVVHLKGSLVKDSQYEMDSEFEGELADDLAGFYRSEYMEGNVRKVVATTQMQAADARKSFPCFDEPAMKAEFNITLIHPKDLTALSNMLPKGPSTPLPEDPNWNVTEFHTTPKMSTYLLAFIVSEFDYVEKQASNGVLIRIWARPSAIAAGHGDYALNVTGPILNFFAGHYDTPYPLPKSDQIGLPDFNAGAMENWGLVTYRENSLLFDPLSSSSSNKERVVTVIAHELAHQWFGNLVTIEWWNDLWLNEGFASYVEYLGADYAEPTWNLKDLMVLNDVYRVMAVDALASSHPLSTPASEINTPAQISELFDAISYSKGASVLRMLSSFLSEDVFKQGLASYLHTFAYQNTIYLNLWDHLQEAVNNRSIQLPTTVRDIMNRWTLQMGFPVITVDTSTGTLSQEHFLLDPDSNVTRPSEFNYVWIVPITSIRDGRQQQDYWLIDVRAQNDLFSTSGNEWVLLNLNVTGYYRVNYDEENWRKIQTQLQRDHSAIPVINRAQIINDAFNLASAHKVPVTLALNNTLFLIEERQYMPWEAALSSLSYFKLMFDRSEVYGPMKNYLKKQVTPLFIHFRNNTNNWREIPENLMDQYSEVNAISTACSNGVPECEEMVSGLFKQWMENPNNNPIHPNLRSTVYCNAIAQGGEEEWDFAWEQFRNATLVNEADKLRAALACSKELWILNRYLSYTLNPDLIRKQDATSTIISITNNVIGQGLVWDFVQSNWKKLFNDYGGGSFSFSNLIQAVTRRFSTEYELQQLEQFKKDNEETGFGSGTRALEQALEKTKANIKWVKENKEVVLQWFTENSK

B1: HCoV-229E S1-RBD (residues 295 to 428) with C-terminal Fc tag (Fc fusion)
chain: VYHKHTFIVLYVDFKPQSGGGKCFNCYPAGVNITLANFNETKGPLCVDTSHFTTKYVAVYANVGRWSASINTGNCPFSFGKVNNFVKFGSVCFSLKDIPGGCAMPIVANWAYSKYYTIGSLYVSWSDGDGITGV
The molecule B1 displayed a Kd of 36 nM, a koff of 0.00115 s⁻¹ and a kon of 32000 M⁻¹ s⁻¹.

B2: HCoV-229E S1 (residues 1 to 536) with C-terminal Fc tag (Fc fusion)
chain: CQTTNGLNTSYSVCNGCVGYSENVFAVESGGYIPSDFAFNNWFLLTNTSSVVDGVVRSFQPLLLNCLWSVSGLRFTTGFVYFNGTGRGDCKGFSSDVLSDVIRYNLNFEENLRRGTILFKTSYGVVVFYCTNNTLVSGDAHIPFGTVLGNFYCFVNTTIGNETTSAFVGALPKTVREFVISRTGHFYINGYRYFTLGNVEAVNFNVTTAETTDFCTVALASYADVLVNVSQTSIANIIYCNSVINRLRCDQLSFDVPDGFYSTSPIQSVELPVSIVSLPVYHKHTFIVLYVDFKPQSGGGKCFNCYPAGVNITLANFNETKGPLCVDTSHFTTKYVAVYANVGRWSASINTGNCPFSFGKVNNFVKFGSVCFSLKDIPGGCAMPIVANWAYSKYYTIGSLYVSWSDGDGITGVPQPVEGVSSFMNVTLDKCTKYNIYDVSGVGVIRVSNDTFLNGITYTSTSGNLLGFKDVTKGTIYSITPCNPPDQLVVYQQAVVGAMLSENFTSYGFSNVVELPKFFYA
On to B2, for which the Kd was determined as 255 nM, the koff was 0.000226 s⁻¹ and the kon was 886 M⁻¹ s⁻¹.
